# Measured values from patent US20250152742A1, “COMPOSITIONS AND METHODS FOR NEUROLOGICAL DISEASES” (Trames Bio, Inc., priority 2022, published 2025).
# B1: CODA75: non-responding chimeric engineered receptor used as the negative control (protein)
# chain: MRCSPGGVWLALAASLLHVSLQGEFQRKLYKELVKNYNPLERPVANDSQPLTVYFSLSLLQIMDVDEKNQVLTTNIWLQMSWTDHYLQWNVSEYPGVKTVRFPDGQIWKPDILLYNSADERFDATFHTNVLVNSSGHCQYLPPGIFKSSCYIDVRWFPFDVQHCKLKFGSWSYGGWSLDLQMQEADISGYIPNGEWDLVGIPGKRSERFYECCKEPYPDVTFTVTMRRRTGYYLIQMYIPSLLIVILSWISFWINMDAAPARVGLGITTVLTMTTQSSGSEIMPATSDSVPLIAQAIDIWMAVCLLFVFSALLEYAAVNFVSRQHKELLRFRRKRRHHKSPMLNLFQEDEAGEGRFNFSAYGMGPACLQAKDGISVKGANNSNTTNPPPAPSKSPEEMRKLFIQRAKKIDKISRIGFPMAFLIFNMFYWIIYKIVRREDVHNQ
# modifications: synthetic sequence of chimeric LGIC
# notes: non-responding chimeric engineered receptor used as the negative control
# B2: CODA217: engineered receptor: W77F in SEQ ID NO: 33 (protein)
# chain: MRCSPGGVWLALAASLLHVSLQGEFQRKLYKELVKNYNPLERPVANDSQPLTVYFSLSLLQIMDVDEKNQVLTTNIFLQMSWTDHYLQWNVSEYPGVKTVRFPDGQIWKPDILLYNSADERFDATFHTNVLVNSSGHCQYLPPGIFKSSCPMDLKNFPMDVQTCKLKFGSWSYGGWSLDLQMQEADISGYIPNGEWDLVGIPGKRSERFYECCKEPYPDVTFTVTMRRRMGYYLIQMYIPSLLIVILSWISFWINMDAAPARVGLGITTVLTMTTQSSGSRASLPKVSYVKAIDIWMAVCLLFVFSALLEYAAVNFVSRQHKELLRFRRKRRHHKSPMLNLFQEDEAGEGRFNFSAYGMGPACLQAKDGISVKGANNSNTTNPPPAPSKSPEEMRKLFIQRAKKIDKISRIGFPMAFLIFNMFYWIIYKIVRREDVHNQ
# modifications: synthetic sequence of chimeric LGIC
# System: engineered chimeric receptor SEQ ID NO: 33 and its mutants (human α7-nAChR ligand binding domain / human GlyRα1 ion pore domain) in Lenti-X 293T cells
# Test: YFP fluorescence quenching anion reporter plate reader assay (percent quench, EC50)
# Type: cell-based
# Conditions: for YFP fluorescence quenching using CNL001 (percent quench): receptor named in row; for YFP fluorescence quenching using Facinicline, 30 nM fac: ligand Facinicline 30 nM; for YFP fluorescence quenching using Facinicline, 300 nM fac: ligand Facinicline 300 nM; for YFP fluorescence quenching using Facinicline, 30 uM fac: ligand Facinicline 30 uM; for YFP fluorescence quenching using TC-6987, 1 uM tc6987: ligand TC-6987 1 uM; for YFP fluorescence quenching using TC-6987, 10 uM tc6987: ligand TC-6987 10 uM; for YFP fluorescence quenching using TC-6987, 500 uM tc6987: ligand TC-6987 500 uM; for YFP fluorescence quenching using Varenicline, 3 nM var: ligand Varenicline 3 nM; for YFP fluorescence quenching using Varenicline, 30 nM var: ligand Varenicline 30 nM; for YFP fluorescence quenching using Varenicline, 300 nM var: ligand Varenicline 300 nM; for YFP fluorescence quenching using Varenicline, 500 nM var: ligand Varenicline 500 nM; for YFP fluorescence quenching using Varenicline, 1 uM var: ligand Varenicline 1 uM
# Summary of the method: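 Percent quench compares mean YFP signal over the final 10 s with the 15 s baseline before ligand, added in iodide-containing extracellular solution (pH 7.2). Cells were LX293T carrying a YFP anion reporter, transiently transfected with the channel construct; plates were preincubated 30 min at 37 °C.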
# [1] = 1 nM CNL001, first column so headed
# [2] = 1 nM CNL001, second column so headed
# [3] = 3 nM brd (TC-5619/Bradanicline)
# [4] = 10 nM CNL001, first column so headed
# [5] = 10 nM CNL001, second column so headed
# [6] = 30 nM brd (TC-5619/Bradanicline)
# [7] = 50 nM CNL001, first column so headed
# [8] = 50 nM CNL001, second column so headed
# [9] = 100 nM CNL001, first column so headed
# [10] = 100 nM CNL001, second column so headed
# [11] = 300 nM brd (TC-5619/Bradanicline)
# [12] = 1 uM CNL001, first column so headed
# [13] = 1 uM CNL001, second column so headed
molecule,measurement,setting,value
B1,YFP fluorescence quenching using CNL001 (percent quench),[1],−8.496%
same,YFP fluorescence quenching using CNL001 (percent quench),[2],−2.266%
same,YFP fluorescence quenching using TC-5619/Bradanicline (percent quench),1 nM brd (TC-5619/Bradanicline),−13.39%
same,YFP fluorescence quenching using TC-5619/Bradanicline (percent quench),[3],−15.78%
same,YFP fluorescence quenching using CNL001 (percent quench),[4],1.816%
same,YFP fluorescence quenching using CNL001 (percent quench),[5],−4.649%
same,YFP fluorescence quenching using TC-5619/Bradanicline (percent quench),10 nM brd (TC-5619/Bradanicline),−13.47%
same,YFP fluorescence quenching using TC-5619/Bradanicline (percent quench),[6],−16.41%
same,YFP fluorescence quenching using CNL001 (percent quench),[7],−5.922%
same,YFP fluorescence quenching using CNL001 (percent quench),[8],−5.597%
same,YFP fluorescence quenching using ABT-126 (percent quench),50 nM abt (ABT-126),−17.07%
same,YFP fluorescence quenching using CNL001 (percent quench),[9],−8.159%
same,YFP fluorescence quenching using CNL001 (percent quench),[10],−5.058%
same,YFP fluorescence quenching (percent quench),100 nM CNL002,−7.94%
same,YFP fluorescence quenching using ABT-126 (percent quench),100 nM abt (ABT-126),−16.76%
same,YFP fluorescence quenching using AZD-0328 (percent quench),100 nM azd0328,−8.83%
same,YFP fluorescence quenching using ABT-126 (percent quench),300 nM abt (ABT-126),−16.76%
same,YFP fluorescence quenching using AZD-0328 (percent quench),300 nM azd0328,−11.15%
same,YFP fluorescence quenching using TC-5619/Bradanicline (percent quench),[11],−17.56%
same,YFP fluorescence quenching using ABT-126 (percent quench),500 nM abt (ABT-126),−14.68%
same,YFP fluorescence quenching using CNL001 (percent quench),[12],−4.272%
same,YFP fluorescence quenching using CNL001 (percent quench),[13],−1.281%
same,YFP fluorescence quenching (percent quench),1 uM CNL002,−9.81%
same,YFP fluorescence quenching using ABT-126 (percent quench),1 uM abt (ABT-126),−16%
same,YFP fluorescence quenching using ABT-126 (percent quench),3 uM abt (ABT-126),−14.11%
same,YFP fluorescence quenching using ABT-126 (percent quench),10 uM abt (ABT-126),−13.98%
same,YFP fluorescence quenching (percent quench),10 uM ach (acetylcholine),−12.88%
same,YFP fluorescence quenching (percent quench),30 uM CNL002,−15.27%
same,YFP fluorescence quenching using ABT-126 (percent quench),30 uM abt (ABT-126),−21.05%
same,YFP fluorescence quenching (percent quench),30 uM ach (acetylcholine),−18.67%
same,YFP fluorescence quenching using AZD-0328 (percent quench),30 uM azd0328,−11.92%
same,YFP fluorescence quenching using ABT-126 (percent quench),50 uM abt (ABT-126),−21.35%
same,YFP fluorescence quenching (percent quench),50 uM ach (acetylcholine),−0.29%
same,YFP fluorescence quenching using ABT-126 (percent quench),100 uM abt (ABT-126),−24.12%
same,YFP fluorescence quenching (percent quench),100 uM ach (acetylcholine),−14.46%
same,YFP fluorescence quenching (percent quench),300 uM ach (acetylcholine),−16.31%
same,YFP fluorescence quenching (percent quench),500 uM ach (acetylcholine),−17.41%
same,YFP fluorescence quenching (percent quench),1 mM ach (acetylcholine),−16.46%
same,YFP fluorescence quenching (percent quench),3 mM ach (acetylcholine),−12.38%
same,YFP fluorescence quenching (percent quench),5 mM ach (acetylcholine),−20.88%
same,YFP fluorescence quenching (percent quench),10 mM ach (acetylcholine),−8.69%
same,"YFP fluorescence quenching using Facinicline, 30 nM fac",,−11.68
same,"YFP fluorescence quenching using Facinicline, 100 nM fac",ligand Facinicline 100 nM,4.35
same,"YFP fluorescence quenching using Facinicline, 300 nM fac",,−10.55
same,"YFP fluorescence quenching using Facinicline, 30 uM fac",,−5.25
same,"YFP fluorescence quenching using TC-6987, 1 uM tc6987",,−11.79
same,"YFP fluorescence quenching using TC-6987, 10 uM tc6987",,−14.31
same,"YFP fluorescence quenching using TC-6987, 500 uM tc6987",,−19.65
same,"YFP fluorescence quenching using Varenicline, 3 nM var",first column,4.161
same,"YFP fluorescence quenching using Varenicline, 3 nM var",second column,−6.216
same,"YFP fluorescence quenching using Varenicline, 30 nM var",first column,−5.173
same,"YFP fluorescence quenching using Varenicline, 30 nM var",second column,−6.593
same,"YFP fluorescence quenching using Varenicline, 300 nM var",first column,−5.733
same,"YFP fluorescence quenching using Varenicline, 300 nM var",second column,−7.312
same,"YFP fluorescence quenching using Varenicline, 500 nM var",first column,−10.35
same,"YFP fluorescence quenching using Varenicline, 500 nM var",second column,−7.586
same,"YFP fluorescence quenching using Varenicline, 1 uM var",first column,−5.637
same,"YFP fluorescence quenching using Varenicline, 1 uM var",second column,−3.757
B2,YFP fluorescence quenching using CNL001 (percent quench),[1],−22.273%
same,YFP fluorescence quenching using CNL001 (percent quench),[2],−19.415%
same,YFP fluorescence quenching using TC-5619/Bradanicline (percent quench),[3],−12.1%
same,YFP fluorescence quenching using CNL001 (percent quench),[4],−9.563%
same,YFP fluorescence quenching using CNL001 (percent quench),[5],6.398%
same,YFP fluorescence quenching using TC-5619/Bradanicline (percent quench),[6],−14.72%
same,YFP fluorescence quenching using CNL001 (percent quench),[7],61.938%
same,YFP fluorescence quenching using CNL001 (percent quench),[8],66.837%
same,YFP fluorescence quenching using ABT-126 (percent quench),50 nM abt (ABT-126),37.81%
same,YFP fluorescence quenching using CNL001 (percent quench),[9],79.791%
same,YFP fluorescence quenching using CNL001 (percent quench),[10],80.908%
same,YFP fluorescence quenching (percent quench),100 nM CNL002,67.81%
same,YFP fluorescence quenching using ABT-126 (percent quench),100 nM abt (ABT-126),57.31%
same,YFP fluorescence quenching using AZD-0328 (percent quench),100 nM azd0328,−7.57%
same,YFP fluorescence quenching using ABT-126 (percent quench),300 nM abt (ABT-126),12.61%
same,YFP fluorescence quenching using AZD-0328 (percent quench),300 nM azd0328,7.08%
same,YFP fluorescence quenching using TC-5619/Bradanicline (percent quench),[11],−6.3%
same,YFP fluorescence quenching using CNL001 (percent quench),[12],83.444%
same,YFP fluorescence quenching using CNL001 (percent quench),[13],83.905%
same,YFP fluorescence quenching (percent quench),1 uM CNL002,69.42%
same,YFP fluorescence quenching using ABT-126 (percent quench),1 uM abt (ABT-126),66.05%
same,YFP fluorescence quenching (percent quench),10 uM ach (acetylcholine),−5.86%
same,YFP fluorescence quenching (percent quench),30 uM CNL002,73.64%
same,YFP fluorescence quenching using AZD-0328 (percent quench),30 uM azd0328,81.59%
same,YFP fluorescence quenching (percent quench),100 uM ach (acetylcholine),70.06%
same,YFP fluorescence quenching (percent quench),1 mM ach (acetylcholine),68.71%
same,YFP fluorescence quenching (percent quench),3 mM ach (acetylcholine),73.45%
same,"YFP fluorescence quenching using Facinicline, 30 nM fac",,−10.14
same,"YFP fluorescence quenching using Facinicline, 300 nM fac",,68.29
same,"YFP fluorescence quenching using Facinicline, 30 uM fac",,87.35
same,"YFP fluorescence quenching using TC-6987, 1 uM tc6987",,−10.35
same,"YFP fluorescence quenching using TC-6987, 10 uM tc6987",,−13.93
same,"YFP fluorescence quenching using TC-6987, 500 uM tc6987",,−7.54
same,"YFP fluorescence quenching using Varenicline, 3 nM var",first column,5.662
same,"YFP fluorescence quenching using Varenicline, 3 nM var",second column,7.57
same,"YFP fluorescence quenching using Varenicline, 30 nM var",first column,13.968
same,"YFP fluorescence quenching using Varenicline, 30 nM var",second column,19.079
same,"YFP fluorescence quenching using Varenicline, 300 nM var",first column,16.183
same,"YFP fluorescence quenching using Varenicline, 300 nM var",second column,18.025
same,"YFP fluorescence quenching using Varenicline, 500 nM var",first column,23.366
same,"YFP fluorescence quenching using Varenicline, 500 nM var",second column,19.206
same,"YFP fluorescence quenching using Varenicline, 1 uM var",first column,34.69
same,"YFP fluorescence quenching using Varenicline, 1 uM var",second column,30.504
